According to the DeepSol protein solubility set:

Experiment: soluble on expression in E. coli; label from the status in PepcDB or PDB records

Sequence	soluble on expression in E. coli
MDLFRKPKKRNAPVVRKKESSSDEDQDSEVKDVIQKRRRTNPMVQSTKQLDASTRRADNSSDDSDDSDDNQDIAVATHSFAASGDAGPSGPRDQGATATLEVDTDYSHDAQAQFERVQQQLKEGVEKDGKILYKGSALYGAKEAKDTAKGNAASGYNRVGPVRAPQFLRQTVRWDFAPDICKDYKETGFCTFGDSCKFVHDRSDYKHGWEIDEEYEAGKYGAEDDANYEIHEGDDTFPEDCFICGNPFVDPIVTKCKHYFCTGCALKSFQKSSKCPICQQNTENIMNTAKELLTYLKRKKQQQKQEAEKQEEEKDSDDDEKPHECDDHHHHDHEDEPEEPENDSNVPEAEEKSDEEQEIMMEDVEGLEGGENDSESDDDDAEKD	soluble
MDMKRRIHLELRNRTPAAVRELVLDNCKAMDGKIEGLTDEFVNLEFLSLISVGLFSVSDLPKLPKLKKLELSENRIFGGLDRLAEELPSLTHLNLSGNNLKDISTLEPLKRLDCLKSLDLFGCEVTNRSDYRETVFRLLPQLSYLDGYDREDQEAPDSDVEVDSVEEAPDSDGEVDGVDKEEEDEEGEDEEEEEDEDGEEEEDEDEEDEDEDEDVEGEDDEDEVSGEEEEFGHDGEVDEDEEDEDEDEDEEEEESGKGEKRKRETDDEGEDD	soluble
MDMPHSTTHDASPAPCQRCGMAGATCCTIDPTDASLCFPVSRSEWERIVDHCDKRGGFATEPNTRPFVDNLIRLFPGEAREIERLFPPHGFHLRLAVDAKGNCAFLGPEGCTLPREVRPWYCLVFPFWLQGGRIAIFTPSGCVAVREGRTVPGCLALMNFTARDVRRLAGRLRLAWGLPPLDENGETLLEHHHHHH	not soluble
MDMPKPPFVIYKGKVEEEFARLHKDGKSLLKAESKFVQFLGLQELTDRACDHVELANPTKNTIIFNIRTPTSPCFFVKPHVGMIDPGGKATLYFTFKGRCHRVPSDYCWIYSIYQLVVDEKTTAFIKEDEFSSQNLRSAWIKHGRKQVNNILHLASSFKAGKPKFECRDGHRKFLERKIYLNDLGDVENSGKSKTENTTDITPANMKKGKLNKAASSDTMDDLPKTAD	not soluble
MDNGHIEETNNVEIDPATGGAVMSFSYASDFPTLPDAAPASAPTAKQTHVWSRPTLSKSEVNITFRLASDERSNKVKSFGSTSEESKKAQAIATATKTRIELSESKDGELTVVVKGERAKAEEARARIIRDLQTQASREIDIPKDHHGRLIGKEGALLRNLEAETNCRIQIPNRDGPSSKITITGPREGIQRAAAHILAVSEREAKLATEHIVCPKNLVAFVRGPKNETYDRLTQNNGVKINIPPPHVTNEVISVTGEKDGVLRVAAEIRQIIESKKNVSSIQVAVARTQHRYIVGQSRSGIHDVLQKTGCVVEVPAEDSGSDQVTLIGNAQDLAKALALVIERASSVVTQSISAPNWLHKHLIGPKGATLTALVPNRNNVQIEFDNSNQIFLEGSPEEVKLAFEPLSKEVARLQMELAIEKVKVHPTLHRHVIGRGGSLISKIKDQHGVQITIPNEETNSDEIVVEGKKEGVKKAVTEIRAIVTKIENEKSRDIIIPQRLHKLIIGSKGSGVQVIRDSHPNVSVVFPDAKSKSDVVNIRGDKTEVDAVYKKLTALSKEYAENNYQQTVAIFKEFLKHIVGKGGASIRKLRDETETRIDLPESGSDDGKITVTGKQANVEKAVAQLNKIQEELANVAEESIEIPQKVQSRFFGNGRRLISDIEDECGGVHIRFPSEKSESTKVTIRGPAGDVAKAVGLLSALAKDKEENYVEDTVKAKPEFHRFLIGKGGSKIAKLRDTLNVRVMFPKEGDAEKETIHLLGKKEDVPKAKAALEDAIKQLSETVDIKITVDPKYYKNFLARGAALVKEIQEQNGGVVISFPKNGTDSSEVSIRGSKQCVEAAKNRIEDVVEDYEKQITDNVTIPAQFHRGLLAGRGAKIHELQSKYNVSIRFPNNREEGSEGSDQVTVSGRDTKVEEAKEALLAMVPISKVIQLPVDMHRSIIGRGGETVRKLMQDYDVNISIPKDNSSEDITVTGQTENVDQALEALRGKLGEYEAQAEDRKLKQWSMSINVPTDYHQKIIGQRGATITALKEKYGVIINVPREDGNETITIQGYEEKANECAAAIEEMISELRSMFTQEISLDARYHPRLIGQRGKNLKKVMEDYRVEIRLPRQGAEDPNLVVVAGKDENDVYDCIDHLRAEEEEFLLDNVERTQYMSPRQQESNNTRHHQQPTSVQMKGAPWQLDLGSSEQFPDMGPAAGSSAAVGGAGAWGSSRRW	not soluble
MDNHGILESLLFTAGDEGLDEKQLLEILDMSKDQLVELIENYSSHGLMIQRFGMTYVLTTKKEAATYIEQLIEQKSQMKLSQAAMEVLSIIAYNQPLSRSDIELIRSINSDGAVKTLIAKGLVEAKVVNEQRSQQLITTDLFLNVFGISNIEDLPTTEEDDEEMDAFFSNLVNQKGENND	not soluble
MDPFKKPVRMLPIKGAPISRPISVFTFDVFNPPDDSDGSSTPDSVFEAETSPARTPPTPALILPYDYVSSEDSDDEAQEHADNRDTNDQVSESSTSEDSDSESESSCDDTQQTFVDDESTSSSGEEDRDDPFESNDQGAQGGSTSESEDDLPAILRAARETQSDSSSDSSGNSHKKRRVQEEESSRILKTPAPISGNGKYNWPWLD	soluble
MDPLDDLLTQLEGVEEEELKPVNRAPRLLNMEEACENQGSSEKPSDSSSKNRYEDDDSDDEELYVKKRELTEQGALLKRHLEKNSSTSGPKATDAWKTNKKSVLTGLTKPSTDTVTVGIVRFDKFQISIRNPKISATSFGAFTAGMKLEKLSNLKPTSNFKEAWCTIGVIVEKGFKKKSANGNDFLIWKLHDLKDCQTQPVKLLMFGDAIKDHWEIKLGSVIALISAQIADDSTASGAKKTVSATLKVAKSNNIVEIGQSAHFGTCKGIRQQDGQRCSNFVNSSLSEFCVFHVMSAARKLSAKRGVFNAVTCGPNVGGLSFNKKPGTPRPPISSRPGISGSGLATSSGSPMLRDTMRPADSFTLTTPTSGLKKITKEEEKSSLNDLLSQRKNTFAARQMLKLKEKKDEKLAESVEEMIEFLGTTGGEEKPSVHSSFGEFLAADTRREKAATVDLRASSATSGTSASSPGGSKLWTMSLANKKAAPLGHKDAQEHAARLRAIAILKAKRKEAEMEKLTGGGGGVKRKASGTPTAPEPEAKKPRSQKMDEIRAMLARKSTHHKEAEKAEHDMLQRHLTGMEEREKVETFTTTCVEVKNVKVVTCNQCKYTSQFASSECIKKEHKLIKHTADKRFFKCTGCKKRTVCFEMMPVKHCAHCNENKWERVAMKDERKVVLDTENLLLRGEERPFVGS	not soluble
MDQEIKSLELNITQLSAITGAHRQTIASRLKGVKTSGGNGSNLKIYRLVDILTAMMTMPAVTGENDPNKMKPSDRRAWFQSEMTRIELEKEMRTLIPASEVLSVYAVMAKTVVKTLEILPDLLERDAALPPDALEMTQKIIDQLREDLASMTYQACADAINGDDDDNGDEGQEEEQE	not soluble
MDQKGILRFHEELASLVLKMRSKGIDDVRFFTALEKIPRQQFVSSPWFKSAYDNKVIPIECGEYIERLEEQLLILYALSLKKKHRVLEIGTGSGFCTAFMACLSDRVITVDRYKTLVDLARQKFQTLGIENIVVRQIDGSRIITGFGSFDRILIWPSRSDEPKEFLELLTENGILIQAIGPDEGVQTITRYTKIASRFECLEMFQVRYQPFIEGIAETL	not soluble
MDQKQLQALVEQISIRVFGKPFRHTAFFNPRLRTTGGRYMLQTHNIELNKKHYEQFGEEELIAIIKHELCHYHLHLEGKGYRHRDRDFRELLQKVGAPRYCRPLARNTKAPKTIYTYICTSCGLTYRRKRRINIDRYVCGRCRSKLKRS	not soluble
MDRFHATSADCCISYTPRSIPCSLLESYFETNSECSKPGVIFLTKKGRRFCANPSDKQVQVCMRMLKLDTRIKTRKN	soluble
MDRLDRKILRILQEDSTLAVADLAKKVGLSTTPCWRRIQKMEEDGVIRRRVALLDPVKVNTKVTVFVSIRTASHSIEWLKRFSEVVSEFPEVVEFYRMSGDVDYLLRVVVPDIAAYDAFYKRMIAKIEIRDVSSAFAMEQIKYTTELPLDYMLLDNPKSGEE	soluble
MDRLESVLKEERVFYPSEEFRKQAHIKSEEEYQRLYEESVRDPEGFWGRVASELHWFEPWRKVLEGDLPHPKWFVGGKTNLSYNALDRHVKTWRRNKAAIVWEGEPGEERVLTYHDLWREVQRFANVLKRLGVKKGDRVTIYLPMIPEAAIAMLACTRIGAVHSVVFGGFSAGALADRIKDAEAKVLITADGGFRRGGIVPLKQNADEALKDATSVEHVVVVRRTGEEVPWTPGRDHWWHELMEAAPDRCDPEPMEAEEPLFILYTSGSTGKPKGVLHTTGGYMTYVYYTTKLVFDLKDEDVYWCTADVGWITGHSYVVYGPLLNGATTVMYEGAPNWPEPDRFWRIVDKYGVTVFYTAPTAIRSFMKWGEGWPGKHRLDSLRLLGTVGEPINPEAWLWYYHVIGKGRCPIVDTWWQTETGGIMITTLPGAHAMKPGHAGKPFFGVVPEILDGEHRPVENPDEGGHLCITRPWPSMLRTVWGDPERFLQQYFSQHPGVYFSGDGAKRDKDGYYMILGRVDDVLNVAGHRLGTMEIESALVAHPAVAEAAVVGRPDPVKGEAIVAFVTLKEGHTPSDALKEELRAHVAKVIGPIARPDEIRFTDALPKTRSGKIMRRLLRQIAAGEKEIKGDTSTLEDRSVVERLKEGA	soluble
MDSDRLSSVEQFPDRGNNHVEEGSAIDYQRVPPLSGTHYASTVSAGFYEATPLLGSLVHTLEHGAVIVYYDPDEISPEARQSLREFSSVHTGTWRSVVAVPNPNDDPRATYVVTAWQHELTIDSYDAETVHAFLSEYLGRGPENPVRLEHHHHHH	not soluble
MDSTARGHAPLCRTSNQRGLGTRLNPYYQSTPHQPMVQSMSNPIGSYGEQGNAQIIGSSGQVLSTGPPPGLAPVQCNDFDSCYSSCDDISHPSLSRESSDPSKIDDDQTAPMIRYPAPEVVEFATKLGYSTEQLSHVLNTIGVDSRMDDVLSELVKMGLPGGKPENSGKSGSRNSPEPIMTSSASSSSASSSSSHRPIRQSVSIATSSPATSSSTPSKYNPDPSLRAVVVDGSNVAMLHGRKEVFSCAGLRECLNYFLERGHPEVLIFIPQYRREQPRSDSPITDQHILQEIERHIIYTPSRNVNGRRVVCHDDRYILRTAELKDAVIVSNDEYRDLTRENPAWRKIVEERLLMFTFVEDKSVF	not soluble
MDSVVSDVSDLVEPDEELKAWQTDRTRAPIATKIVVAGGFGAGKTTLVTAVSEITPLQTEALMTQASEDTDDLTGTPDKLTTTVAMDFGRITLDDDLVLYLFGTPGQQRFWFMWDDLVRGAIGAVVLADTRRLSDCFPALDYFESCGLPYVVAVNHFDGSEKFEPEDVREALTVPAHIPVMIMDARRRISVIETLLALVGHALEVSPELEHHHHHH	soluble
MDTFGLIQLAELIYEYCGIDFFKNLSSLESKISERLKELGLSCWEYGGYLRVEPKEWDTLIDLITVNETYFFREENLLEEFQKVILPKYKDRTPNNPLRIWSSACSSGEEPYTLAILSEETGLFETGAVEIIASDIDKKVLEKARRGLYNKKSFSFRTMPKEILDKYFISFGDDYKVKDSIRAMVDFRRVNLLDENKLEKVGEVDIVFCRNVLIYFDTKAINKVINSLYKVLRAGGYLFLGHAETITGMNTGFETIYTPSAFYYRKGERH	not soluble
MDTIININNNNQKYPQSAEEYHKVLCNYFITLQSAMQSTSRPSSSSPPSLPAVSSELLSSSFPTNAPESSSRDLAPKQNQFTINVVLFDEKKKKNPEENLPANGDQLATLRSLMMQINPSSPPSIPATSPQLPLAESENVPESSSTLKDHKFSLNTMLFNVKKNDAVKISLANQEQWAKFHEIGTEMMVFNSGRRLFPLLAYKVSGLDPHKLYCAGVHMIPDSAYKQEYDHDLQQWVNCLNQKKTIFKPTSEILGRIENGFKLMSLGIDMSDVKIFNIAIRKKTPLQIEKSRKPNLDKTIEVLIQYKYLPVIKIYELSNSGMEKKEIAQATFPETSFVTVSIYRNQKIKEMKTLGNKYCRTDRKQIVMEQRGELEQ	not soluble
